The record followed here is patent US20250115669A1, “FGFR1/KLB Targeting Agonistic Antigen-Binding Proteins and Conjugates Thereof with GLP-1R Agonistic Peptides” (SANOFI, priority 2020, published 2025).

This test has as its target T1, human beta-Klotho (Homo sapiens, UniProt Q86Z14).
T1 sequence (Q86Z14 1-1044): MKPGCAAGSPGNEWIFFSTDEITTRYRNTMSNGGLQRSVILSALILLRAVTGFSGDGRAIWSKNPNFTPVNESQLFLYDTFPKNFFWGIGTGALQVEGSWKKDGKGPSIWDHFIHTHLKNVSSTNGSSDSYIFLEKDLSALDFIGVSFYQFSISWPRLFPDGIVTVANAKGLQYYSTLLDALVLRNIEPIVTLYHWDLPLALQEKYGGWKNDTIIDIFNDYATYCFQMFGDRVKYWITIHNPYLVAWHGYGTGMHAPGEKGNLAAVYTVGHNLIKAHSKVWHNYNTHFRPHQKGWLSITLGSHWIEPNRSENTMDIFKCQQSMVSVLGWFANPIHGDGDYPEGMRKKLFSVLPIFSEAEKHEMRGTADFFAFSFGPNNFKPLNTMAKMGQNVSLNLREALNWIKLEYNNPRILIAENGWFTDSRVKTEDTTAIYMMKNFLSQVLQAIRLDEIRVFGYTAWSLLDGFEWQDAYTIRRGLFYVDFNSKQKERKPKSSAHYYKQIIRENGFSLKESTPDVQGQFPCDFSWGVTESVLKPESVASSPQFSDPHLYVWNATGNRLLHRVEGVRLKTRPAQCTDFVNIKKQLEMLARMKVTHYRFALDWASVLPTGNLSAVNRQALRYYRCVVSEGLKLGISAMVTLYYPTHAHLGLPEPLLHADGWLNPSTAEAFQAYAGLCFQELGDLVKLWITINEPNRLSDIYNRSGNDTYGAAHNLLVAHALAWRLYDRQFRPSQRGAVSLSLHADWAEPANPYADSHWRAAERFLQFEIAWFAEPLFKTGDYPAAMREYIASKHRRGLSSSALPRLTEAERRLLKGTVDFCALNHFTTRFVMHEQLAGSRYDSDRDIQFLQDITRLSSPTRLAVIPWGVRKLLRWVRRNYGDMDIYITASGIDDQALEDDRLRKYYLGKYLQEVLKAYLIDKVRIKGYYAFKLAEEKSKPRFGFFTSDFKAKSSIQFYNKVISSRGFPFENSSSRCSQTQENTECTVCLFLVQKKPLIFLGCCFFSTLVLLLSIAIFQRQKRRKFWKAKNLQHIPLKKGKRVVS
The test is described as follows: SPR off-rate screening of antibody mutants (human beta-Klotho captured by anti-His antibody). Type of test: binding. Conditions: mean, n=3. On the procedure: Screening of antibody mutants for binding to human beta-Klotho was determined in a different SPR assay set up. Human beta-Klotho was affinity captured by an anti-His antibody (from His capture kit, GE Healthcare) that was immobilized to a series S CM5 chip (GE Healthcare) by amine reactive coupling as described above. The antibody samples were used as analytes at 50 nmol/L concentration. Association time was 240 sec and dissociation time was 300 sec. Chip surfaces were regenerated using the regeneration solution supplied with the His capture kit. The off-rates (kd) were determined using single exponential fitting in the Biacore 8K Evaluation Software version 1.1.1.7442 (GE Healthcare).

Turning to “Ab0234: IgG4 PE; 16H7 VL (N93S); 16H7 VH”, the “koff human KLB” value amounted to 0.00011 s⁻¹.
The same measure for “Ab0213: IgG4 PE; 16H7 VL (D95E); 16H7 VH (I83T, D109Y)”: “invalid fit”; for “Ab0386: IgG4 PE; 16H7 VL (D95S, W90F); 16H7 VH (M34V, F54W, I83T, D109E)”: “no binding”.
As for “Ab0188: IgG4 PE; 16H7 VL (D49Y); 16H7 VH (M34V, I83T)”, the “koff human KLB” value came to 0.00084 s⁻¹.
“Ab0198: IgG4 PE; 16H7 VL (N93E); 16H7 VH (I83T, D109E)”: the “koff human KLB” value was determined as 0.000346 s⁻¹.
The same measure for “Ab0214: IgG4 PE; 16H7 VL; 16H7 VH (I83T, D109S)”: 0.00121 s⁻¹; for “Ab0207: IgG4 PE; 16H7 VL; 16H7 VH (I83T, D109Y)”: 0.00188 s⁻¹; for “Ab0300: IgG4 PE; 16H7 VL (D49Y, D91T); 16H7 VH (M34V, I83T, D109E)”: “invalid fit”.
The same measure for “Ab0202: IgG4 PE; 16H7 VL (D49Y); 16H7 VH (M34V, I83T, D109E)”: 0.00161 s⁻¹.
The same measure for “Ab0209: IgG4 PE; 16H7 VL (D49Y); 16H7 VH (I83T, D109Y)”: “invalid fit”.
Regarding “Ab0302: IgG4 PE; 16H7 VL (D50E, D91T); 16H7 VH (M34V, I83T, D109E)”, the “koff human KLB” value is “invalid fit”.
The same measure for “Ab0194: IgG4 PE; 16H7 VL (N25S); 16H7 VH (I83T, D109E)”: 0.000402 s⁻¹; for “Ab0196: IgG4 PE; 16H7 VL (D50E); 16H7 VH (I83T, D109E)”: 0.00194 s⁻¹; for “Ab0309: IgG4 PE; 16H7 VL (D50E, N93E); 16H7 VH (M34V, I83T, D109E)”: 0.00103 s⁻¹.
The same measure for “Ab0201: IgG4 PE; 16H7 VL (N25S); 16H7 VH (M34V, I83T, D109E)”: 0.000336 s⁻¹; for “Ab0190: IgG4 PE; 16H7 VL (D91T); 16H7 VH (M34V, I83T)”: 0.000195 s⁻¹; for “Ab0306: IgG4 PE; 16H7 VL (N25S, N93E); 16H7 VH (M34V, I83T, D109E)”: 0.000288 s⁻¹.
The same measure for “Ab0296: IgG4 PE; 16H7 VL (N25S, D50E); 16H7 VH (M34V, I83T, D109E)”: 0.00137 s⁻¹; for “Ab0205: IgG4 PE; 16H7 VL (N93E); 16H7 VH (M34V, I83T, D109E)”: 0.000334 s⁻¹.
For the substance “Ab0208: IgG4 PE; 16H7 VL (N25S); 16H7 VH (I83T, D109Y)”, the “koff human KLB” value was 0.0021 s⁻¹.
The same measure for “Ab0189: IgG4 PE; 16H7 VL (D50E); 16H7 VH (M34V, I83T)”: 0.000387 s⁻¹.
With “Ab0217: IgG4 PE; 16H7 VL (D50E); 16H7 VH (I83T, D109S)”, the “koff human KLB” value came to 0.002 s⁻¹.
The same measure for “Ab0297: IgG4 PE; 16H7 VL (D49Y, D50E); 16H7 VH (M34V, I83T, D109E)”: 0.00156 s⁻¹; for “Ab0186: IgG4 PE; 16H7 VL; 16H7 VH (M34V, I83T)”: 0.000104 s⁻¹; for “Ab0197: IgG4 PE; 16H7 VL (D91T); 16H7 VH (I83T, D109E)”: 0.00167 s⁻¹.
Turning to “Ab0210: IgG4 PE; 16H7 VL (D50E); 16H7 VH (I83T, D109Y)”, the “koff human KLB” value is on record as “invalid fit”.
The same measure for “Ab0215: IgG4 PE; 16H7 VL (N25S); 16H7 VH (I83T, D109S)”: 0.00125 s⁻¹.
The same measure for “Ab0193: IgG4 PE; 16H7 VL; 16H7 VH (I83T, D109E)”: 0.000337 s⁻¹.
The same measure for “Ab0219: IgG4 PE; 16H7 VL (N93E); 16H7 VH (I83T, D109S)”: 0.000915 s⁻¹.
With “Ab0220: IgG4 PE; 16H7 VL (D95E); 16H7 VH (I83T, D109S)”, the “koff human KLB” value is reported as “invalid fit”.
The same measure for “Ab0187: IgG4 PE; 16H7 VL (N25S); 16H7 VH (M34V, I83T)”: 0.000156 s⁻¹.
The same measure for “Ab0211: IgG4 PE; 16H7 VL (D91T); 16H7 VH (I83T, D109Y)”: “invalid fit”; for “Ab0212: IgG4 PE; 16H7 VL (N93E); 16H7 VH (I83T, D109Y)”: 0.00185 s⁻¹; for “Ab0307: IgG4 PE; 16H7 VL (D49Y, N93E); 16H7 VH (M34V, I83T, D109E)”: 0.00118 s⁻¹.
The same measure for “Ab0195: IgG4 PE; 16H7 VL (D49Y); 16H7 VH (I83T, D109E)”: 0.00267 s⁻¹.
On to “Ab0192: IgG4 PE; 16H7 VL (D95E); 16H7 VH (M34V, I83T)”, for which the “koff human KLB” value is “invalid fit”.
The same measure for “Ab0203: IgG4 PE; 16H7 VL (D50E); 16H7 VH (M34V, I83T, D109E)”: 0.00151 s⁻¹; for “Ab0204: IgG4 PE; 16H7 VL (D91T); 16H7 VH (M34V, I83T, D109E)”: 0.00133 s⁻¹.
The same measure for “Ab0218: IgG4 PE; 16H7 VL (D91T); 16H7 VH (I83T, D109S)”: 0.00668 s⁻¹.
The same measure for “Ab0216: IgG4 PE; 16H7 VL (D49Y); 16H7 VH (I83T, D109S)”: 0.00984 s⁻¹; for “Ab0191: IgG4 PE; 16H7 VL (N93E); 16H7 VH (M34V, I83T)”: 0.000144 s⁻¹; for “Ab0295: IgG4 PE; 16H7 VL (N25S, D49Y); 16H7 VH (M34V, I83T, D109E)”: 0.00157 s⁻¹.
With “Ab0199: IgG4 PE; 16H7 VL (D95E); 16H7 VH (I83T, D109E)”, the “koff human KLB” value is “invalid fit”.
The same measure for “Ab0200: IgG4 PE; 16H7 VL; 16H7 VH (M34V, I83T, D109E)”: 0.000369 s⁻¹.
